Publication PMC9800739, “Epigenetic drugs in somatostatin type 2 receptor radionuclide theranostics and radiation transcriptomics in mouse pheochromocytoma models” (Theranostics, 2023)

Experiments:
MPC tumors [1] = format: in vivo, mouse; settings: mouse, in vivo
Method: (§1) During anesthesia, animals were continuously warmed at 37°C. […] Animals were sacrificed using CO2 inhalation and cervical dislocation.
(§2) 107 (30%), muscle (0%), kidneys (25%), and liver (35%).
(§3) 116 attenuation. Images were post-processed and analyzed using ROVER (ABX). Three-
118 kidneys (15%), and liver (25%). […]

MPC tumors [2] = experiment: SPECT imaging of [177Lu]Lu-DOTA-TATE uptake in MPC allograft mice; settings: mouse, in vivo
Method: as §1
(§4) Small animal single-photon emission computed tomography (SPECT) was initiated 22‒26 hours after radiotracer injection using the nanoSPECT/CT scanner (Mediso Medical Imaging Systems). […] Activity concentration in tissues was determined and reported as AV mean (VOI-averaged volume activity AV tissue 24h, MBq/mL). Details on quantitative SPECT image analysis are provided in Supplemental Information 1.5.
as §2, §3
(§5) 118 kidneys (15%), and liver (25%).
(§6) 119 1.6 Sstr2 promoter methylation analysis
(§7) 122 Bisulfite Kit (Qiagen, Hilden, Germany). Bisulfite-converted DNA was amplified using a
Amplicon size (195bp) was confirmed
(§8) 125 Switzerland). Electropherograms were compared to PCR products amplified from bisulfite-
(§9) 127 an unmethylated 900bp-DNA fragment. The latter was generated by amplification of genomic
(§10) 129 of primers are provided in (Table S 2).

MTT tumors = experiment: SPECT imaging of [177Lu]Lu-DOTA-TATE uptake in MTT allograft mice; settings: mouse, in vivo
Method: as §1, §4, §2, §3, §5, §6, §7, §8, §9, §10

[3] = system: midgut neuroendocrine liver metastases; settings: after a short course of vorinostat; cited from earlier work

Which “SUVmean plateau, MPC compared to MTT allografts” value (MPC tumors [1]) does the source give for C[C@@H](O)[C@H](NC(=O)[C@@H]1CSSC[C@H](NC(=O)[C@@H](Cc2ccccc2)NC(=O)CN2CCN(CC(=O)O)CCN(CC(=O)O)CCN(CC(=O)O)CC2)C(=O)N[C@@H](Cc2ccc(O)cc2)C(=O)N[C@H](Cc2c[nH]c3ccccc23)C(=O)N[C@@H](CCCCN)C(=O)N[C@@H]([C@@H](C)O)C(=O)N1)C(=O)O [[^64Cu]Cu-DOTA-TATE, metal not drawn] here?
The value was 14 fold.

Which “AV max 24h tumor, sub-cohort” value (MPC tumors [2]) does the source give for C[C@@H](O)[C@H](NC(=O)[C@@H]1CSSC[C@H](NC(=O)[C@@H](Cc2ccccc2)NC(=O)CN2CCN(CC(=O)O)CCN(CC(=O)O)CCN(CC(=O)O)CC2)C(=O)N[C@@H](Cc2ccc(O)cc2)C(=O)N[C@H](Cc2c[nH]c3ccccc23)C(=O)N[C@@H](CCCCN)C(=O)N[C@@H]([C@@H](C)O)C(=O)N1)C(=O)O [[^177Lu]Lu-DOTA-TATE, metal not drawn] here?
The value was 9.52 ± 0.58 MBq/mL.

And the “AV mean 24h, MPC compared to MTT allograft mice” value (MPC tumors [2])?
The value was 8 fold.

What about the “mean tumor AV 24 h (single animal shown in image)” value (MPC tumors [2]) of the same compound?
Its value is 4.14 MBq/mL.

And the “AV max 24h tumor, sub-cohort” value (MTT tumors)?
The value was 1.19 ± 0.10 MBq/mL.

What about the “mean tumor AV 24 h (single animal shown in image)” value (MTT tumors) of the same compound?
The value was 0.59 MBq/mL.

For O=C(CCCCCCC(=O)Nc1ccccc1)NO [vorinostat], which “increase in [68Ga]Ga-DOTA-TATE uptake in tumors” value [3] is on record?
Its value is 10%.
